Test results as given in patent publication US20070092518A1 (published 2007).
Numbering of substitutions follows the chain as printed.

B1: SEQ ID NO 92 (Fab, V domains shown)
VH: EVQLVESGGGLVQPGGSLRLSCAASGSIFSNHWMNWVRQAPGKGLEWIGEIRSKSSNSATHYAESVKGRFIISRDGNKNDLTLEMNSLKTEDTAEYYCARNYYGSTYDYWGQGTLVTVS
VL: EIVLTQSPDFQSVTPKEKVTITCRASQFVGSSIHWYQQKPDQSPKLLIKYASESMSGVPSRFSGSGSGTDFTFTISSLEAEDAATYYCQQSHSWPFTFGPGTKVDIK
notes: Fab, E. coli lysate
B2: SEQ ID NO 95 (Fab, V domains shown)
VH: B1 VH with V5T, A23R, I28T, W33Y, H61S, G76D, N79T, D80S, T82Y
VL: B1 VL
notes: Fab, E. coli lysate
B3: SEQ ID NO 109 (Fab, V domains shown)
VH: B1 VH with A23R, G76D
VL: B1 VL
notes: Fab, E. coli lysate
B4: SEQ ID NO 104 (Fab, V domains shown)
VH: B1 VH with V5T, A23R, G26Q, S27F, W33Y, S56I, G76D, T82Y, R100Q, Y107P
VL: B1 VL
notes: Fab, E. coli lysate
B5: SEQ ID NO 108 (Fab, V domains shown)
VH: B1 VH with V5T, G26Q, S27F, I28T, W33Y, S56I, N57Y, H61S, D80S, R100Q
VL: B1 VL
notes: Fab, E. coli lysate
B6: SEQ ID NO 101 (Fab, V domains shown)
VH: EVQLVESGGGLVQPGGSLRLSCRASGFTFSNHYMNWVRQAPGKGLEWIGEIRSKSSNSATSYAESVKGRFIISRDDNGNSLYLEMNSLKTEDTAEYYCAQNYYGSTPDYWGQGTLVTVS
VL: B1 VL
notes: Fab, E. coli lysate
B7: SEQ ID NO 99 (Fab, V domains shown)
VH: B1 VH with W33Y, S58G, G76D, D80S, T82Y, R100Q
VL: B1 VL
notes: Fab, E. coli lysate
B8: SEQ ID NO 110 (Fab, V domains shown)
VH: B1 VH with S56I, H61S, G76D, N79T, T82Y, R100Q, Y107P
VL: B1 VL
notes: Fab, E. coli lysate
B9: SEQ ID NO 97 (Fab, V domains shown)
VH: B6 VH with V5T, F27S, Y33W, S58G, N79T, S80D, P107Y
VL: B1 VL
notes: Fab, E. coli lysate
B10: SEQ ID NO 102 (Fab, V domains shown)
VH: B1 VH with A23R, S27F, S56I, S58G, G76D, N79T, D80S, T82Y
VL: B1 VL
notes: Fab, E. coli lysate
B11: SEQ ID NO 106 (Fab, V domains shown)
VH: B1 VH with G26Q, S27F, S58G, H61S, N79T, R100Q
VL: B1 VL
notes: Fab, E. coli lysate
B12: SEQ ID NO 105 (Fab, V domains shown)
VH: B6 VH with V5T, R23A, T28I, S58G, Y82T
VL: B1 VL
notes: Fab, E. coli lysate
B13: SEQ ID NO 100 (Fab, V domains shown)
VH: B1 VH with V5T, A23R, G26Q, S27F, W33Y, S56I, S58G, G76D, N79T, T82Y
VL: B1 VL
notes: Fab, E. coli lysate
B14: SEQ ID NO 94 (Fab, V domains shown)
VH: B1 VH with A23R, S56I, S58G, G76D, K78G, N79T, D80S, T82Y
VL: B1 VL
notes: Fab, E. coli lysate
B15: SEQ ID NO 93 (Fab, V domains shown)
VH: B6 VH with V5T, N57Y, S58G, S61H, N79T, S80D
VL: B1 VL
notes: Fab, E. coli lysate
B16: SEQ ID NO 98 (Fab, V domains shown)
VH: B1 VH with V5T, A23R, S27F, I28T, S58G, N79T, T82Y, Y107P
VL: B1 VL
notes: Fab, E. coli lysate

Biological target: T1, human tumor necrosis factor-α (rHuTNF-alpha, Biosource) (human, UniProt P01375 77-233)
T1 construct: Bought recombinant protein coated on ELISA plates; The TNFα of the Biacore assay is not described further; also called TNFα; human TNFα
T1 sequence (P01375 77-233 limits assumed): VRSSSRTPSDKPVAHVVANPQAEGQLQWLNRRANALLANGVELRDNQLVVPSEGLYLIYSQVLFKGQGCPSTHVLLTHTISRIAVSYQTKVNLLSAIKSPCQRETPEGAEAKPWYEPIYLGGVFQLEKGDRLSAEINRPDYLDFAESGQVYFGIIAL
Assay: solid-phase ELISA, Fab lysate on coated rHuTNF-alpha
Description: The Fab libraries were cloned into pTrcHis2A (Cat. No. V365-20, Invitrogen, Carlsbad, Calif.). Proteins were expressed in E. coli and solid-phase ELISA was used to assess Fab binding to human TNFα. Briefly, 96-well plates were coated overnight at 4° C. with 1 μg/ml of rHuTNF-alpha (Biosource, Camarillo, Calif.) in Carbonate-bicarbonate buffer, pH9.4. After washing in PBS with 0.05% (w/v) Tween-20, the wells were blocked with 1% (w/v) BSA in PBS for 1 hour at room temperature. After washing, plates were incubated with transformed E. coli cell lysate diluted in the assay buffer (1% BSA and 0.05% Tween-20 in 10 mM PBS) for 2 hours at room temperature. Various concentrations of infliximab (0.5, 1 and 2 ng/ml) were used as positive anti-Human Kappa Light Chain Biotin/anti-penta-His Biotin control. Plates were washed and incubated with ImmunoPure Goat Anti-Human Kappa Chain, Biotin Conjugated (Cat. No. 31780, Pierce Biotechnology, Rockford, Ill.) and Penta-His Biotin Conjugate (Cat. No. 34440, QIAGEN, Valencia, Calif.) diluted 1:2000 in the assay buffer for 1 hour at room temperature. Following another washing step, plates were probed for 1 hour at room temperature with 100 μL/well of Streptavidin POD (Cat. No. 1089153, Roche Applied Science, Indianapolis, Ind.) diluted 1:4000 in the assay buffer. Plates were further washed and then incubated with 3,3′,5,5′-tetramentylbenzidine (TMB, Cat. No. 34028, Pierce Biotechnology) for 30 minutes. Substrate development was stopped by addition of 100 μL/well TMB Stop Solution (Cat. No. 50-85-05, KPL, Gaithersburg, Md.) and the absorbance was measured at 450 nm via an automated plate spectrophotometer.

**Q.** Does B1 bind?
**A.** binds

**Q.** Does B2 bind?
**A.** binds

**Q.** Does B3 bind?
**A.** binds

**Q.** Does B4 bind?
**A.** binds

**Q.** Does B5 bind?
**A.** binds

**Q.** Does B6 bind?
**A.** binds

**Q.** Does B7 bind?
**A.** binds

**Q.** Does B8 bind?
**A.** binds

**Q.** Does B9 bind?
**A.** binds

**Q.** Does B10 bind?
**A.** binds

**Q.** Does B11 bind?
**A.** binds

**Q.** Does B12 bind?
**A.** binds

**Q.** Does B13 bind?
**A.** binds

**Q.** Does B14 bind?
**A.** binds

**Q.** Does B15 bind?
**A.** binds

**Q.** Does B16 bind?
**A.** binds
